Residue numbers refer to the chain shown, from its start. Names and notes keep the numbering of the source.
T1: Tom20 (human (endogenous in fibroblasts and …, UniProt Q15388 1-145))
T1 construct: Tom20, mitochondria-specific marker, human, endogenous; source: endogenous, in fibroblasts and iPSC-derived motor neurons
T1 sequence (looked up): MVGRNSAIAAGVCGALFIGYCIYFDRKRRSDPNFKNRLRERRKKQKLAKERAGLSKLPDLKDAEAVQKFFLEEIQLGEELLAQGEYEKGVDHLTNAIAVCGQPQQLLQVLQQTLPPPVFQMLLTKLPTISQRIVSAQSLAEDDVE

B1: Fused in Sarcoma (FUS), endogenous wild type (natural protein, UniProt P35637 1-526, looked up)
chain: MASNDYTQQATQSYGAYPTQPGQGYSQQSSQPYGQQSYSGYSQSTDTSGYGQSSYSSYGQSQNTGYGTQSTPQGYGSTGGYGSSQSSQSSYGQQSSYPGYGQQPAPSSTSGSYGSSSQSSSYGQPQSGSYSQQPSYGGQQQSYGQQQSYNPPQGYGQQNQYNSSSGGGGGGGGGGNYGQDQSSMSSGGGSGGGYGNQDQSGGGGSGGYGQQDRGGRGRGGSGGGGGGGGGGYNRSSGGYEPRGRGGGRGGRGGMGGSDRGGFNKFGGPRDQGSRHDSEQDNSDNNTIFVQGLGENVTIESVADYFKQIGIIKTNKKTGQPMINLYTDRETGKLKGEATVSFDDPPSAKAAIDWFDGKEFSGNPIKVSFATRRADFNRGGGNGRGGRGRGGPMGRGGYGGGGSGGGGRGGFPSGGGGGGGQQRAGDWKCPNPTCENMNFSWRNECNQCKAPKPDGPGGGPGGSHMGGNYGDDRRGGRGGYDRGGYRGRGGDRGGFRGGRGGGDRGGFGPGKMDSRGEHRQDRRERPY
notes: Fused in Sarcoma (FUS), human, endogenous wild type; also called FUS WT; WT FUS; source: endogenous, in HEK293 cells, control fibroblasts, iPSC-derived motor neurons and NPSCs
B2: FUS R521H, endogenous mutant of ALS patient-derived cells (natural protein, UniProt P35637 1-526, looked up)
chain: B1 chain with R521H
notes: Fused in Sarcoma (FUS), human, with the ALS patient mutation R521H; source: endogenous, in ALS patient-derived fibroblasts and iPSC-derived motor neurons
B3: FUS P525L, endogenous mutant of ALS patient-derived cells (natural protein, UniProt P35637 1-526, looked up)
chain: B1 chain with P525L
notes: Fused in Sarcoma (FUS), human, with the ALS patient mutation P525L; source: endogenous, in ALS patient-derived fibroblasts, iPSC-derived motor neurons and NPSCs
B4: mtDNA Ligase IIIα (mtLig3) (enzyme, UniProt P49916 43-1009, looked up)
chain: LLHGHPLFLRRKPVLSFQGSHLRSRATYLVFLPGLHVGLCSGPCEMAEQRFCVDYAKRGTAGCKKCKEKIVKGVCRIGKVVPNPFSESGGDMKEWYHIKCMFEKLERARATTKKIEDLTELEGWEELEDNEKEQITQHIADLSSKAAGTPKKKAVVQAKLTTTGQVTSPVKGASFVTSTNPRKFSGFSAKPNNSGEAPSSPTPKRSLSSSKCDPRHKDCLLREFRKLCAMVADNPSYNTKTQIIQDFLRKGSAGDGFHGDVYLTVKLLLPGVIKTVYNLNDKQIVKLFSRIFNCNPDDMARDLEQGDVSETIRVFFEQSKSFPPAAKSLLTIQEVDEFLLRLSKLTKEDEQQQALQDIASRCTANDLKCIIRLIKHDLKMNSGAKHVLDALDPNAYEAFKASRNLQDVVERVLHNAQEVEKEPGQRRALSVQASLMTPVQPMLAEACKSVEYAMKKCPNGMFSEIKYDGERVQVHKNGDHFSYFSRSLKPVLPHKVAHFKDYIPQAFPGGHSMILDSEVLLIDNKTGKPLPFGTLGVHKKAAFQDANVCLFVFDCIYFNDVSLMDRPLCERRKFLHDNMVEIPNRIMFSEMKRVTKALDLADMITRVIQEGLEGLVLKDVKGTYEPGKRHWLKVKKDYLNEGAMADTADLVVLGAFYGQGSKGGMMSIFLMGCYDPGSQKWCTVTKCAGGHDDATLARLQNELDMVKISKDPSKIPSWLKVNKIYYPDFIVPDPKKAAVWEITGAEFSKSEAHTADGISIRFPRCTRIRDDKDWKSATNLPQLKELYQLSKEKADFTVVAGDEGSSTTGGSSEENKGPSGSAVSRKAPSKPSASTKKAEGKLSNSNSKDGNMQTAKPSAMKVGEKLATKSSPVKVGEKRKAADETLCQTKVLLDIFTGVRLYLPPSTPDFSRLRRYFVAFDGDLVQEFDMTSATHVLGSRDKNPAAQQVSPEWIWACIRKRRLVAPC
notes: DNA ligase IIIα, human, endogenous; also called LigIII; mitochondrial version of Lig3; source: endogenous, in HEK293 cells, fibroblasts, iPSC-derived motor neurons and NPSCs

Assays:
Conditions in all cases: partners not purified
Tom20 [1] = target: T1, Tom20; assay: proximity ligation; Duolink in situ PLA on fixed, permeabilised control and patient iPSC-derived motor neurons (Fig. 1e, 4e); with or without GO; MitoTracker green counterstain; foci counted in 25 cells
Tom20 [2] = target: T1, Tom20; assay: proximity ligation; Duolink in situ PLA on fixed, permeabilised cells with anti-FUS and anti-Tom20 or anti-HSP60; patient derived fibroblasts and motor neurons (Fig. 1c, d; the panel's cell type is not told); untreated or glucose oxidase (GO)
HSP60 = target: T2, HSP60 (human (endogenous in fibroblasts and …, UniProt P10809 27-573)); assay: as above
T2 construct: HSP60, mitochondria-specific marker, human, endogenous; source: endogenous, in fibroblasts and motor neurons
T2 sequence (P10809 27-573): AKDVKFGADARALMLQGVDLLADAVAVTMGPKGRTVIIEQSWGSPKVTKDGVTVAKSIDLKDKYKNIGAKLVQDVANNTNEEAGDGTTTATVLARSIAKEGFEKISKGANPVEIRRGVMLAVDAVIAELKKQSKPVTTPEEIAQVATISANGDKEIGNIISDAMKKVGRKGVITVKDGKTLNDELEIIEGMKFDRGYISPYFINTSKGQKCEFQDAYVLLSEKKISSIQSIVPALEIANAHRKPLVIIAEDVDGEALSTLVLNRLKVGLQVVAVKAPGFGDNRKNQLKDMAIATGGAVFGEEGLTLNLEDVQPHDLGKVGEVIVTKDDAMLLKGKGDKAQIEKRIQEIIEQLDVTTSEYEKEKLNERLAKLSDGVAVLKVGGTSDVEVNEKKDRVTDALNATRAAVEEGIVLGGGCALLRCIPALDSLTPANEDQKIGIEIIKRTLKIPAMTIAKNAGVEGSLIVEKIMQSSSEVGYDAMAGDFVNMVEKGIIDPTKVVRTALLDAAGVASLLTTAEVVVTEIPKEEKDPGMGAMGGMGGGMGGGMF

[3] = target: B1; assay: proximity ligation; Duolink in situ PLA on fixed, permeabilised control and patient iPSC-derived motor neurons (Fig. 1e, 4e); with or without GO; MitoTracker green counterstain; foci counted in 25 cells
[4] = target: B2; assay: as above
[5] = target: B3; assay: as above

| Binder | PLA foci, median (GO) (Tom20 [1]) | PLA foci, median (untreated) (Tom20 [1]) | PLA foci, median (untreated) (Tom20 [2]) | PLA foci, median (GO) (HSP60) | PLA foci, median (untreated) (HSP60) | PLA foci, median (GO) [3] | PLA foci, median (GO) [4] | PLA foci, median (GO) [5] |
| --- | --- | --- | --- | --- | --- | --- | --- | --- |
| B1 | 4 PLA foci | 1 PLA foci | 24 PLA foci | 36 PLA foci | 12 PLA foci |  |  |  |
| B2 | 9 PLA foci | 4 PLA foci | 89 PLA foci | 56 PLA foci | 27 PLA foci |  |  |  |
| B3 | 13 PLA foci | 4 PLA foci | 218 PLA foci | 64 PLA foci | 51 PLA foci |  |  |  |
| B4 |  |  |  |  |  | 8 PLA foci | 4 PLA foci | 2 PLA foci |

From PMC10925063, “FUS unveiled in mitochondrial DNA repair and targeted ligase-1 expression rescues repair-defects in FUS-linked motor neuron disease” (Nature Communications, 2024)
